From patent publication US20160168251A1 (MorphoSys, published 2016)
Substitutions are numbered along the chain they refer to.

T1: human NPRB on HEK293 cells, without added ligand (human, UniProt P20594 23-1047)
T1 construct: whole, on cells; also called HEK NPRB cells; natriuretic peptide receptor B
T1 sequence (looked up): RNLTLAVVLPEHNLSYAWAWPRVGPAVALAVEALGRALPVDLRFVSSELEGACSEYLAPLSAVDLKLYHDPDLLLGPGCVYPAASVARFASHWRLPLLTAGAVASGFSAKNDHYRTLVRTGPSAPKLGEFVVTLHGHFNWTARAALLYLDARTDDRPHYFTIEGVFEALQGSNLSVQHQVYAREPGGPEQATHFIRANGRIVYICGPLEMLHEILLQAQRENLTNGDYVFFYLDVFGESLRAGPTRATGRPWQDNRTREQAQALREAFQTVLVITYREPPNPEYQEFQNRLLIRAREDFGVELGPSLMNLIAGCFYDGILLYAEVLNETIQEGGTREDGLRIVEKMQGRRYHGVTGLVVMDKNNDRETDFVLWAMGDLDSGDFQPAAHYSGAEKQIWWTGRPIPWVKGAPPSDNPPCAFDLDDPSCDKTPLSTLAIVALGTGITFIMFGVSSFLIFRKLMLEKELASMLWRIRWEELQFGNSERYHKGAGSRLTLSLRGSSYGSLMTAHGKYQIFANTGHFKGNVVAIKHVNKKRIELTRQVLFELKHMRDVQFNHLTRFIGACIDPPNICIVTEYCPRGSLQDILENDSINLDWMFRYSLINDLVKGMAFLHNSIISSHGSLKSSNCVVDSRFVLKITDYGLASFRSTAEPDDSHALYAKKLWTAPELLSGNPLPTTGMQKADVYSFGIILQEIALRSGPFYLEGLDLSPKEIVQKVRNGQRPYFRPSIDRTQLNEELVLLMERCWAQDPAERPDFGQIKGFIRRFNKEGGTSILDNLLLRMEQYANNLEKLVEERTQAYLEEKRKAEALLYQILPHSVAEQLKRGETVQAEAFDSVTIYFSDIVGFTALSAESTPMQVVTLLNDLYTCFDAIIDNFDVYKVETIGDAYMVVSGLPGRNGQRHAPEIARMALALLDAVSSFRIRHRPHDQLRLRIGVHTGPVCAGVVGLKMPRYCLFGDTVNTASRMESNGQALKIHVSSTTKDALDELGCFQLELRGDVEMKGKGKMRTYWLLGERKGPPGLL

T2: human NPRA on HEK293 cells bound to ANP (human, UniProt P01160 124-151)
T2 construct: mature; Receptor-ligand complex on cells; also called HEK NPRA cells loaded with ANP; ANP-NPRA complex
T2 sequence: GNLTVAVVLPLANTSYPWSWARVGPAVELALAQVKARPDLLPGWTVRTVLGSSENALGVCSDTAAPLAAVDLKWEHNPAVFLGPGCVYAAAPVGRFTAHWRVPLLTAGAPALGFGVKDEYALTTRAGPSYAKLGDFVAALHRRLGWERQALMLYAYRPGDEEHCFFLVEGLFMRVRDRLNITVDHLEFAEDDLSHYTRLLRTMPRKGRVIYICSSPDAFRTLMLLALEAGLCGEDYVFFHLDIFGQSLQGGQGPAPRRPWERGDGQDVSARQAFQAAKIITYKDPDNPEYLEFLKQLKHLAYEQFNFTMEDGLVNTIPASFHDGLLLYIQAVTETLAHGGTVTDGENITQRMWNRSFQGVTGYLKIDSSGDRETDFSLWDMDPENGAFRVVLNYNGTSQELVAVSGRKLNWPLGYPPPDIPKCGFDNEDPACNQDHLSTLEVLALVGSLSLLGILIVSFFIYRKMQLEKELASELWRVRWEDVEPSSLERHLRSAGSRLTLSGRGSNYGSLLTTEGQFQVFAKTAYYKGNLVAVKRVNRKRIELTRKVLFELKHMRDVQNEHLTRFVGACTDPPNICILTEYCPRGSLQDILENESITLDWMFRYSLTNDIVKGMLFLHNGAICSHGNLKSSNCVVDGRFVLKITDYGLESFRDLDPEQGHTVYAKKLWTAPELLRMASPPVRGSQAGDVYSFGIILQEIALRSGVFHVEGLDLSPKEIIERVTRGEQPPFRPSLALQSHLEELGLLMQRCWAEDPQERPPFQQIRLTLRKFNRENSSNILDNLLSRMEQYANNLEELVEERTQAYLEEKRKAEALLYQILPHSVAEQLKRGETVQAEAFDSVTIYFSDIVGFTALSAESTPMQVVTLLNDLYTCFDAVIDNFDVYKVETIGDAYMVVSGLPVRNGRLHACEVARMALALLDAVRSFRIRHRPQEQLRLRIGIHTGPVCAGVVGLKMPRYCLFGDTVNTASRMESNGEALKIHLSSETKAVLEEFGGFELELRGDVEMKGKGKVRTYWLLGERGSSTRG
T2 sequence (peptide): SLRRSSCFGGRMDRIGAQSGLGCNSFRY

B1: 5502 IgG4_Pro (antibody, V domains shown)
VH: QVQLQQSGPGLVKPSQTLSLTCAISGDSVSSRSASWSWIRQSPGRGLEWLGRIYYRSKWYNDYAVSVKSRITINPDTSKNQFSLQLNSVTPEDTAVYYCARMDVPSFRYFDVWGQGTLVTVSS
VL: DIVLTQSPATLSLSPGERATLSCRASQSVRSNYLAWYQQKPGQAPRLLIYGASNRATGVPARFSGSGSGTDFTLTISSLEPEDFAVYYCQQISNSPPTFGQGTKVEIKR
notes: Human IgG4_Pro
B2: 5591 IgG4_Pro (antibody, V domains shown)
VH: B1 VH with I53T, K58H, N61Y, D62E, V65Q
VL: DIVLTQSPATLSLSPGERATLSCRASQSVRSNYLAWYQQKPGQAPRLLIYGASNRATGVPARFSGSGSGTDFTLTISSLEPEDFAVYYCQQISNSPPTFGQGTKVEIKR

Columns and labels:
[1] = biological target: T3, human NPRB on HEK293 cells in the presence of CNP (human, UniProt P20594 23-1047; P23582 105-126); assay: FACS, HEK NPRB cells with 100 nM CNP
T3 construct: whole, on cells;mature; also called HEK NPRB cells + 100 nM CNP
Experimental: (§1) HEK NPRA cells are detached with Accutase (PAA Laboratories GmbH, Cat. No. L11-007, Austria), harvested by centrifugation (900 rpm, 4 minutes) and resuspended in FACS buffer (PBS/3% FCS/0.02% NaN3) to a final concentration of 10⁶ cells/ml. 100 μl of the cell suspension is transferred to each well of a 96 round bottom plate (TC Microwell 96U, Nunc). […] Cells are washed in 150 μl of FACS buffer, pelleted and resuspended in 50 μl of the solution containing the primary antibody comprising a BEL extract of Fabs, a diluted BEL extract or purified antibody diluted in FACS buffer and incubated on ice for 30 min. Cells are washed again in FACS buffer and resuspended in 50 μl of FACS buffer containing the secondary antibody (R-Phycoerythrin-conjugated Affipure F(ab′)₂ Fragment Goat Anti-Human IgG, Dianova) and incubated on ice for 45 min. Cells are washed twice with FACS buffer and resuspended in 200 μl of FACS buffer for analysis in the FACS Array (BD Biosciences).

[2] = biological target: T1, human NPRB on HEK293 cells, without …; assay: FACS, HEK NPRB cells without ligand
Experimental: as §1

[3] = biological target: T2, human NPRA on HEK293 cells bound to ANP; assay: KinExA whole cell binding (Kd,app), HEK cells with human NPRA, ANP bound, 75 and 200 pM IgG
Experimental: Initial species cross-reactivity studies are performed using HEK cell lines overexpressing rat, canine and rhesus monkey NPRA. […] These apparent Kd values are obtained by globally fitting the data for two antibody concentrations.

T3 sequence (P23582 105-126 limits assumed, chain 2 of 2, one chain of several): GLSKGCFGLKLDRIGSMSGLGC

| Binder | binding result [1] | binding result [2] | Kd [3] |
| --- | --- | --- | --- |
| B1 | no binding (tested: 20 nM) | no binding (tested: 20 nM) | – |
| B2 | – | – | 0.59 nM |
